Reference: the supplement of paper PMC12636428

Test system: Saccharomyces cerevisiae
Assay: transcriptional activation domain activity (GFP:mCherry ratio, weighted mean of sorted bins, harmonized to initial dataset scale) (arbitrary fluorescence ratio units); higher = stronger transcriptional activation
Settings: beta-estradiol 1 µM; induction time 4 h
Summary of the method: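 Sorting into 8 bins by GFP:mCherry ratio followed a 4-hour hold at 30 °C after cultures were diluted 1:5 into SC with 1 uM beta-estradiol. The yeast diploids carried a GFP reporter and had barcoded protein tiles, fused to an estradiol-inducible synthetic transcription factor, integrated at URA3. Barcodes were then sequenced, and tiles with under 50 reads were removed. Activation activity is the read-weighted mean of bin median fluorescence, averaged across barcodes and linearly mapped onto the initial dataset scale.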

Sequence | transcriptional activation domain activity
EYLDKLLAEFEEFDYSINRVLPDVIDFSALIGQDSSANNQIFSSEFSSDPTVN | 139000
PLNMLHLGTWYLDGFQPFEHLRANKELWNLLVRGQTEILSLPRFGWTGWLLSF | 46900
LWNSYLQSMDDTTGKNSGNYQQVDNDDNMSLLNLPILEETVSSGQDDKVEPDE | 54600
RKNNKREVKVEAREPHHKGRKNNKREVEAVEEVEARDPHHKGRKNNNREVEVE | 28300
YETRPHAHVQEAVLTNRLTSAALYNPGRIAVLPLVCVWRDERTVVVFVHLVLT | 21400
QARQAQEPAMSQKDLATKVNEKQSVINDYESGRAVPNQQLLAKLERALGVKLR | 51300
GLVSLDRLLVNRFGEALLSMGRAPTWSWKRALRAVLLSLVELSARCEFKLGSN | 48400
AARVSDYSMAQFRFLLKFLLVHGRWNYVRICKYTVGTFWKELLFYLTQALFQR | 48200
KIHIANMAQVAVFLLHKILYGIIPLFEISTCAYFPLLISLWHLNYLLFYTVMF | 63200
EIESVVMLYVSGRLLRIIEVGLVEGRPDVQAIVQALVARLICVTVSATAKWAR | 36000
DGHFGSDFGWVWPFSFSLFCFLFCILHFLVYCTHNVLLWKQLSLNFLFCIFHG | 54100
FKDNPKVIETKDKVMHYNTQLRYHGLRDHQVNIRNTRRHAIALLIWRVVQMVF | 39500
QENAQTEKEERDEKERAREKGNEKEKGNESEKGDEKKKGNEKKKGTERGKGKG | 28100
MDAPQNNSRGNNARRNRNRGGNRQSTGGVTKQQSQQQSKPAAKPVNVQTTVVI | 47800
MYGHVWMGVLHCKLLLVGFLWVLFTLMPDMYIHGREGINSAYTIGHSFTIGFA | 47400
MDGDERPRKRARLACTNCNARRVKCDVTDRQPCRNCEIAHAVCETRESKRGKH | 9400
IVVYGANGGNLGENCNREFSERCVPVFRARATVFAELTWLILVSAWEFKSIRR | 51000
DGEATATPAKPKTPRKRKVKAADSAEEGTGDAEGSPKKKAGGRKKKADVAVKE | 38600
PFQFLLLKSLSIQKHSDLIIRGCSHFYVGVLSCILNFFLGSWSAWLKRFWYML | 80300
PDGSAITGSAVTKRKQSKSRNGCITCKAKRLKCDETKPSCQQCAKRSVTCGGY | 28100
GAAASTPAAPQKPAGGLFGGAGLGAASKPADAAASSSSSGLFGAKPAESAPAA | 30900

Sequence | transcriptional activation domain activity
MFDYLVFTLCPCIFFILFLLILLVLLHKALVVFFFYHYSILVLVVPYYCLFVF | 86400
MSSHDGYRTRRTPQACVACRRRKTKCDGARPRCRHCASRHRQCVWPDVAEGAS | 39900
EAGNERRESSRRHDDTERRERRRHRSHDRGHDRERRHRRHRRSRSRDRDGGRE | 34300
AGNGWLLVGWFILHHFVVVSGILVAMLCLSFWDLWGSPGSPLLSRPWVAACFA | 50500
ASIISQRSGIVRALSRLMIFDRKLRVKDTHLRRLQHRIVIQSLVFGAFFSCVG | 54700
HVLEYACSIAISRQQERRKRKAIRKSESLNALAKALLRLLSVFSTIRLASGQL | 91500
KILNCLSIRLYLCRKGFGSLPNEQLALFNFNARECLRALGVTLFKPRLYRLCY | 80900
MPVLPKSSSTKRAGAPKAKGAVRAKSGCYTCRIRRKKCDENPDDAGQCQTCVR | 36600
MSFKKDEETGVSSFYQDKTSVIQEARVFNETPISPRKCRILLTKVIYLLYSGE | 44100
GVLFCLSCLSFINLSFFLGGGCLFSFSFLFPALVWRYAFFLLVLDYRRILNIP | 36900
MSEEEGPAKSTSNKKRRLQGACDECRKRKVKCDSANMPGNQCSNCNVSHIECT | 42300
REAAGRERGERGRDNARGAGEREQPGRVRARLRGGRGKAREGEEGSCVRSAAP | 22900
GKEKNHGRGERNGERTKAKGEGRGEEDSQRRGRRRESKERGRRRGGEPEETKG | 49600
MSNVQTELPFFPSCFVFFRGSFSFFCLVLFPLMAFIIELSILSFRCLFLLFLL | 61300
FPRLVGCIAASLEGLPSTRNGRTAYCVLRVVASYFLCLIRNLMFSDLPVVRCR | 68700
PAPAAAAASSSTATEKASGEQQPRESKRNPRHRNKRGRDNKDKDGKEGAGGKS | 28100
SNASLSAQHPLGIDEEDLSSKPRCQRCRKSKKGCDRQRPCGRCKDAGIGIEGC | 35300
KLHQQAKSDFDELQESIPHQVGFSTPQLTAQQLIENAIESGVVDLETLDLPPF | 112000
VEEVLEKRAHRGPAGRSVEEEDEDVEEVLEKRAHRGPAGRSVEVEEKRAHRGP | 29700
MIMILLVAVLYFLLFRFDLLGLFYCQLFLLSSHLRFVLSTLYLNGSHHLLFFF | 34000
MLFSLYLFFYFLFFVCDGYVTMGSVFFFCSCWWCSYYYLTINIGLTNYFFPPL | 53300

Sequence | transcriptional activation domain activity
YLMVLYYTSRPVLFLVCAGNELCFIFIYCLGWFSHWLLWLGLLISIPVCLFKQ | 71800
KKEKAEKNKQQSKGQGQGEGDKEQKKEGEGEGEGGKDARAKGEKDGKDEKGAK | 46400
ERGTEEREKEREEGMRGRRGKRNRGRWKREGEEEGGEEEGRKGRKEKGRQGAE | 47700
RADARSTTRPDGSADESFDALEEEVEEYYIYVHYKTITQPSKALNLVALGRLQ | 52000
EETKPAESAKETKPVANRPAQKKPEKRKKEEQEGQEVVEKETSKKRAKKDKKS | 39200
SQLQDPIAKEHVAFGLRHMYKTLQNEVKSYYNLMQSLHVRLPGLEFLTLWMAF | 50100
DAGSGGGEVRRAGGSGILKESGTFGDCRCLSRYASAASLRVHVLLCWENALSA | 40400
LRCVGFILYLLLLIGKIMAFKEIDLLQEHQNFWAKVIYNARGSNRSWDWLSMI | 59600
ERKRRAKQKEKEERKKKKKKNANSKDARQRSESSSRREKRKDEDSDDEEEEGG | 35700
MVGRGCAVQVMIYPLFFVPGFLGFGFLVCYHFPFFMSLLWVLAWLRFWLVISS | 64400
GYLHHILKLFDCAFGISYPQLHHVLEVRTRALLLAGLNLTFVLDGPLPMWKAA | 54900
LLLALLIADCGHLVSMRGLGVQVYWNIWEWNVFTAASVLLVYFYITLRICFLF | 53300
FYICAILGFKIGIIFAFLRIAVDRTYRISIICVAVICSAFYFCFFVAQLNFCT | 62100
LYPQDLVSSPAMSHLTANNDDFDDLLSVASMNSNYLLPVNSHGYKHISNLDEL | 69100
ESAVKFENSGPFINPSRASTLLVSRDSNRIILSGTTARGKTAVFLTTGLLVES | 63200
NLISLPLLKLCSEFAHVKWYEVLSHIVCFGFNGPTKPRSNNLVSLNLQCEHYK | 48400
LRLIWVYLYRCHESGSTVTSKLESLLKHFFPPNRLIVVPQEERLEPFVCIVHF | 53100
RMGRWKHGWRKWWWKFYKWCFLWMIEVIRVVKVVGIVIVGCIYLGLRFFIFVE | 57000
KIHLVNIGQVLVLLLHRFLYGIIPLFEITTCAYFPFLVSLWHIQYILFYAVMF | 84900
MGSGDTFFYWKLFSFSLSLLTRFSPLYFGWPFLKTIPLFMYFFLCRVLPLFLM | 53400
PFLFPSLFYSQYHTIPFSFSCHFIPLSFSFPSFYSGSPIPFPFLFSSSYLFLF | 58300

Sequence | transcriptional activation domain activity
IIVKTEIMIRNRHPRFLRITLDSVSNLVRLWYIVRLKKLTYYYLLWEFSLLPL | 49700
MFCLRSWLPLLFIPTNAPPIFVFLFFVCTFFLSRPCVYCSFLLAILFLTSCYW | 65100
QFRYLKRLLLVHGHWSYARNGNMINNFFYKNIICIGVLWWFMIYCGWSSAYVF | 71200
LGILLLLFDWRVLFNAAQMSCALHESCIALSVMKARNQEWKWWCLGSTYYVYE | 44100
RKDALLKTSFGGTVFAVRQIGGDRFHGMPFVHLMVIVICLHWTWLRAVIFLGR | 52800
VPLEEYIPSDIDGVGRVTDKSSLVYDWPFDESIERNFSTTATAATGESKFDIN | 68100
EVHLHIRKVYRHYDDLEHLGRRKFNFLTLVIRHLLDIVGIDSPWALFSRKPQQ | 63000
APQPVEATAIDDGFQEAKRGRGRKKAKEEVVASAPAAPADAPQVAKAKVVASA | 23300
GSSGSGAGSKGGPAPRGSSAKRSSGSGSGGGGRKGGGSAGKGSGGGGGRGRSG | 28600
GNAREMRASSARAAGFRRRGRQASNTRAAGNEREGGEQRARGRGASSARAGGI | 43400
MIRTLFLFFLFIIIFFFFFFFCFLLFFVFLFLFIFLIVVFTIRKSMNLGFVCV | 42400
GGGGGSSRKRARGGESEDEAAGARANGVGNGPSNGKGKEKGKEVVDDGVAVGS | 55900
RLYAVRLVIVILVMELTLHFLYVVAISKSKAWDGASPLELSMVGYFNLVIIWM | 42900
EQAAKKKTAAPAAAPKAEAAKAPEVKAEAAAPAPEPEKPAAGGKKKKLNPALL | 52300
LSSFALLSSGYFLDVFFLFFCFFVFFVFPFLFLLSTVNTHAIFFFFLSFSFVI | 60300
RLKLFIMVVFCLGTIHEYALIGMYWSILISCRRSMSLECTTKLPWQMVLGVFM | 49800
KAAPAPAASGDEGGEDEDEEDGDAVARRHQSKRSRRGIVVEESDEEDEGEPAA | 41100
VYRRELDQNKGGLILIVRRTGNEVHCGVYITFGFMKQWKLYVKSLISITGQWH | 58500
EKRHEKKKGSRDISGADDRSSGRSKDRRDHSSRGSSRKRHGSRRDKDRDLEDG | 25700
RMPKDCKSREFRDKAHDAVDAFAVDLEKRLRDENRPALLKLACLLMVLHQIEL | 58600
